This is an account of results in publication PMC4947182.

Series [1] can be described thus: soluble expression of ectodomain in Sf9 cells. The following applies: glycan lost; control: WT JUNO ectodomain.
Series [2] in a line: mRNA complementation of Juno KO eggs, fertilization rate. The conditions noted are these: glycan lost; control: Juno KO eggs injected with WT mJuno mRNA.

B1: JUNO (folate receptor 4, IZUMO1R): N185D (protein)
parent chain: MAQWWQILLGLWAVLPTLAGDKLLSVCMNSKRHKQEPGPEDELYQECRPWEDNACCTRSTSWEAHLEEPLLFNFSMMHCGLLTPACRKHFIQAICFHECSPNLGPWIQPVVPNGQEEQRVWGVPLCQEDCEDWWRACHSSLTCKSNWLHGWDWSEEKKHCPAHEPCLPFSYHFPTPDDLCEKIWNNTFKASPERRNSGRCLQKWFEPTLSNPNVEVALHFAGSALAPQLSYTLPAFSLCLLFHP
With B1, in series [1], the expression_or_secretion entry is listed as “abolishes”.

B2: JUNO (folate receptor 4, IZUMO1R): N73D (protein)
parent chain: MAQWWQILLGLWAVLPTLAGDKLLSVCMNSKRHKQEPGPEDELYQECRPWEDNACCTRSTSWEAHLEEPLLFNFSMMHCGLLTPACRKHFIQAICFHECSPNLGPWIQPVVPNGQEEQRVWGVPLCQEDCEDWWRACHSSLTCKSNWLHGWDWSEEKKHCPAHEPCLPFSYHFPTPDDLCEKIWNNTFKASPERRNSGRCLQKWFEPTLSNPNVEVALHFAGSALAPQLSYTLPAFSLCLLFHP
Consider B2, for which the expression_or_secretion entry in series [1] is “no change”. Also, the “other: sperm-egg fusion, other: percent eggs fertilized” value in series [2] is recorded as “no change, 94.7 vs 93.5”.
